Assay results: a protein production outcome set (Wang et al. 2014)

Assay: label from the status in PepcDB records
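Also: failed if final PepcDB status was selected cloned or expressed and not failed if soluble or beyond.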

Sequence | protein production
MLKVLFVPLNRNYVFDYIDDWKNIVADSLSRAGLSSEILIWPSTIKPSMKCFNWARKQYLAPCIIENMGNMFYDYLNEYFIVGIGYIDGYDYGLNFVFGEASPINRIAVVFTRRLDPRFYGEEPNYNLYLERVAKEIVHELGHLLGLSHCKRRTCVMSFSNSVYEVDAKTRFFCETCSNTLRKLNVLEHHHHHH | failed
MLKYQQIATEIETYIEEHQLQQGDKLPVLETLMAQFEVSKSTITKSLELLEQKGAIFQVRGSGIFVRKHKRKGYISLLSNQGFKKDLEDFNVTSKVIELDVRKPTPEAAENLNIGMDEDIYYVKRVRYINGQTLCYEESYYTKSIVTYLNNEIVSHSIFHYIREGLGLKIGFSDLFLHVGQLNEEEAEYLGLEAGLPKLYIESIFHLTNGQPFDYSKISYNYEQSQFVVQANSFLL | not failed
MLLDKIQNLIIQSDISIFQSMKKMDEEKVKLLFVFRGDCFVGILTIGDIQRAIIKQNDTSMQINNILDQNKVFAYKGESLEIIKNKMIHLRAECMPILDSKGELVDVLFWKDLFIDEVRVDDRKIDLPVVIMAGGKGTRLKPLTNVIPKPLIPIGDKTILEAILDQFESIGCSKFYMSVNYKYDILKFYLAQLDHKYDIRFFKEDKPLGTIGSVSLLKDKISTPFFVSNCDIIIDQDYRDVYDYHINNSNDLTIVTAVKRTRIPYGVIETIENGLMTELIEKPEFTYMINSGVYILQPELINEIPENELFHITHLMEKVKSRGGKIGCFPVSEKSWTDIGEWNEYLKLLGILEHHHHHH | failed
MLLILIIIAFVVLFVFFAKYQKKQAQAAALAAGDPSALLNHGLTLINQNQVETGLDFIHQAVDKGFAIAAIALAELYSGRFPQVPADAKASNDWYKKAAELDPQYLAMLTLPNLLSSQAQTPDELIAQVEQLKPNAEAGQAEFQYELAYLYLRQPFLDPDASQAIYWFEKAAAQNKQEANYHLGTLYKDDERITSDYNKARKYFEKAVAAGDELAKDNLAHMLATGQGGPKDLVRAEHLLSEYAAEDDFRQYYLGKRFLYGEDFAVDYDKARHWLEKSSAAGNVFAKLALAHLKLLAQKNDQDYLQARTEFEALAPQWQEEALFGLGKIYEEGLGVSRQPIKALMYYQLAAMSHNTDYLTAYDKLSKRLGTLEIREAQSLCNNFLHQHPIPNEQQAYYYLNQAEIYRKGDHPSREGLQTAETWYRKSADLGNQNAMQALVEIYRHELMDKPVQAFIWSSILLRNFGKYGMNSDQLLYQQQAQSRLTESELLYAQSEIERIEALLTPYLETHQSV | failed
MLLLHWDNMGKIELHHVFVMLSCIYLIFSDISINSAVVFLFSSIFFYISFTAGKRLYYLIGIDKENLKINLKKHYNFGIFLMIVGLIAVTSDLIWVKDVPLFNPLSRKFLNVYFTTLSHLFLVGWAIVVASSNIDKKKILLYTIIFSILIMLLGYRTNVLVLLISVGAILYYKNKISNREILKYGILVFVILLGLSILRLYALGVEGNPITSRISLTMSIYDIIFNNFNGVFNGYIHYSAVFSYLGLCNGARTVIAKTLGIYNVSITPTIVGAVIGDYGTLAIIPYFGILGIFLGFFYKLAKDVKGIYLGIYGILFAYTLIGIESGILDIDVILYYFFGLILCIYAILLRKLKR | failed
MLLSFDNKAIADWAKLSGDYNPIHFEVERARETGANDIIVHGMLPLLHIKQRLSTVLPADTGRDWVSVKAMFRSPVLRQLPHALEIQPGKQRSRFSLRATHDASEVMAGSVYRSVPAESPEQPASFSIDRQLFREKRAVFAEAFPDFDRAWLLVDALTFSQFLSSEVPFSIVRDLAKMSGIASQHELMDAALTVQTAHTVMVEPELFRMPLSQLKDPGEIRCELHAPVTVPNSKDTLSGLSQFTVRLDGRPVMQSEVGLLVRFKS | failed
MLLSIIMPAHNAAAYLERTLALLAQQIAGLEQVEVVAIDDASTDETAKILVEFARTHSWLKAISVDFANVGLARQAGIGLAGGQYVTFLDSDDAFLSGGLAWMVNVLRQRAPDLLMTPLQETGQPLDGTEVAGLFQDVVPLSTQQACDLFCEHQRLQGHFAGKCVTRQILLQHDLAAMECYEDMMTTPHWIVEAKSIVWGEVPVYAYYKRPGSLSDRGQTWRYGKEYIRALQSIEAAFAGRIAVWQTAHLWIGFAKDLLKTSTGRQFLDTQPAVAEKIQSISVWKYLVATQVSCKWKIRFLRVRLRLLEHHHHHH | not failed
MLLYIHGFNSSPFSDKAVITARYMAEYHPSLTFHQPQLPNTPKAAMALLQSYVEAAQQANEPLNYIGSSLGGYFASYLAERYGGRAVLVNPAVKPFELFDEFMGPQFNPYTQEHYQVLPEHKREVAEFNTPVIRNPERFLVLLQTGDEVLDYREALHKYHHCQLRIESGGDHSFVGYERYLQTVSQFLH | failed
MLNAIKFRIYPNAQQKELISKHFGCSRVVYNYFLDYRQKQYAKGIKETYFTMQKVLTQIKRQEKYHYLNECNSQSLQMALRQLVSAYDNFFSKRARYPKFKSKKNAKQSFAIPQNIETKTETQTIALPKFKEGIKAKLHRDLPKDSVIKQAFISCIADQYFCSLSYETKEPIPKPTIIKKAVGLDMGLRTLIVTSDKIGYPHIRFYQKLEKKLTKAQRRLSKKVKDSNNRKKQAKKVSRLHLACSNTRDDYLHKISNEITNQYDLIGVETLNVKALMRTYHSKSLANASWGKFLTMLEYKAQRKGKTLLSIDRFFPSSQLCSYCGVNTGKKHESITKFTCPHCQTTHHRDYNASVNIRNYALGMLDDRHKVKTDKARVGIIRSDYTHHTNECVKACGASSNGVSSKYGNILDLASYGAMKQEKAQSL | failed
MLNGLWLGFFLVAAVSAMAQWLVGGNAGIFAAMVESIFAMAKLSVEVMVLLFGTLTLWLGFLKIAEKAGIVEWLAKVLGPLFARLMPEVPPGHPALGLITMNFAANGLGLDNAATPIGLKAMRALQELNPGSTTASNAQILFLVLNASSLTLLPVTVFMYRAQQGAPDPTMVFLPILLATSVSTLVGLLSVAVMQRLRLWDPVVLAYFIPGALLLGGFMAFLGTLSAAALASLSSLLGNLTLFGVIMLFLVVGALKRVKVYEAFVEGATEGFDVAKSLLPYLVAMLVAVGVLRASGALELALDGIRHAVSWMGLDTRFVEGLPTALVKPFSGSAARAMLIETMQTQGVDSFPALVAATIQGSTETTFYVLAVYFGAVGIQRVRHAVGCALLAEFSGVVAAIFVCYWFFA | failed
MLNPDELVAIDIHTHAEEPCGCHADDGYDDFQARMAEYFGSPNKHPPTVPETAAYYRAKKIAAVIFPVDAERETGFRRYNNDEMIEITRQNSDVLIPFASIDPHKGKIGVREARRLIADYGIKGFKFHPTMQGFYANDRLAYPLYEAIQEGGAIALFHTGQTGVGSGMPGGMGMRLKYSNPMYMDDVAADFPDMKIVLAHPSFPWQEEALSVATHKPNVYIDLSGWSPKYFPPILVRYINSILQDKMLFGSDWPVITPDRWLSDFAKLEIREEVRAKVLKQNARKLLGI | failed
MLNSDIYLKESLYDLLSLWRTPAFFLPAMLFPLVFYVFFGIVFNFSAAQGEYMLVSYACFGMMGPALFNYATAVASDRAQGWLTLKRISPMPLSAYVVAKFFSSLVFAACIALMLFITAALFADVQLLLWQWATLFTVLLIGTLPFALIGLLMGLCLSDKAAPAVVNLVYLPMAFLSGLWVPIQFLPDTVRYIAYGLPSYHYSQLAHAVIGTNQGHNLWLHGLYLVAFCGVLIAVIYWRYQRLSR | failed
MLNTLIVGASGYAGAELVSYVNRHPHMTITALTVSAQSNDAGKLISDLHPQLKGIVDLPLQPMSDVRDFSADVDVVFLATAHEVSHDLAPQFLQAGCVVFDLSGAFRVNDRAFYEKYYGFTHQYPELLEQAVYGLAEWNVDKLNTANLIAVPGCYPTAAQLSLKPLIDGGLLDLTQWPVINATSGVSGAGRKAAISNSFCEVSLQPYGVFTHRHQPEIAVHLGAEVIFTPHLGNFPRGILETITCRLKAGVTHAQVADVLQKAYGDKPLVRLYDKGVPALKNVVGLPFCDIGFAVQGEHLIVVATEDNLLKGAAAQAVQCANIRFGFAETQSLI | not failed
MLPAQDTRGKGLSLARRLYRSRTLGLALGFFCVAAGMAPLQPAPWVWGFMLFNAFAWPHLAYQWARLARVPFRAEYRNLLVDSLLGGFWVGAMHFNPLPLATTLGMMAMNNMALGGLRFFLAGSAAQVLGMGVALWLFGPAFVAQTTPEQVYACLPMLTLYPLALGYICYQQAVTLGRHKRELLALSRTDSLTGLLNHGAWKDQLEIEFQRCKRQAHGGAIALIDIDHFKAINDTYGHVAGDVVLRQLSKLLRQNLRVSDQAGRYGGDEFCVILPDVPLAHAAELMEALRGRFGALGYEQSPALQVSLSIGLAAFNPLHDDAMGWLNDADQALYAAKTCGRNNVTCHPPEQPSRRLLNSL | failed
MLPAYIKIHDAIKKEIDKGTWKIGQRLPSERDLADDYSVSRMTLRQSITLLVEEGILERRVGSGTYVASHRVQEKMRGTTSFTEIVNSQGRKPSSKLISFQRKLANETEIQKLNLSQSDYVVRMERVRYADKVPLVYEVASIPENLIKGFEQSEVTEHFFKTLTENGYEIGKSQQTIYARNASERVASHLEVNAGHAILALTQVSYFTDGKPFEYVHGQYVGDRFEFYLENN | failed
MLPIYTGSAIQCPMRLDAYLVEMGHFKSRGRAKTAILDGKVKVNGIAVTKVSRDVSIDDTIEVAEGLDQPQGYFKLKYVQEESGVLKPGDRVLDLGSSAGGFLLFASEIADHVKGIEFSRDFRSELGKIAYERENVEIIFGDVFTIPLKELSEEPVDVILSDMTLEPEDSIKALSRMLPLLKEGGRLLQVIKIPKKKNPKPILSRIENLGLEIQQVLSSEKQEIYVVAKRPFLEGKESTEENE | failed
MLPLLVGTGVLVFLLLFGDSLLQDSDSYWQIETGRWILAHGTVPTVDSFSFSKAGEPWQSSSWLAQLIFALAMQAGWAGPVIVTALAVAAALAMFTAYLERYASALVTAALALAAMVLIMPHVLARPHMLALPVMVAWFIGLIDAADRKAAPPWALLLVMALWANLHGGFVFGLMLIGPLGLEALRQAEPQRRLSLALRWAAFGIAAVAACCATPYGWGTLLAATKILSLGEVLSTLGEWASSDFSKFGTFEASLLALLGIALARGLTLPWPRLLLVLGLVHMALVHVRSIEHYALLVPMIAARPWALQLGLARKSAEAKPDLAPPAWAGVVAVIAIIAATIAAAPRLHYRFDEPQVPERALAAVQAHGAKRIFNAYIFGGYLISRHVPVFIDGRAELYGEARVMDMMRATAGRDPAALDRMLTGNDIDATMLPPSAAAVRQMDERPGWRRLYADDIAVVHVRD | failed
MLPSGLKETQLRESNNNQKVHPQPMEESINQNPEAMEALISNLFGNISSLKSAYIELQSAHTPYDPEKIQAADKVVISELKNLSEMKHFYRENNPKPVCVSPQDSRLAAEIQEQQSLLKTYEVMVKKFQSEIQNKDSEITQMLQKIEEANQKRLKLEKNLKLRGMSTNEGSNGDGNMQFPDLTTELYVSTYEAAAKAVHDFSKPLINMMKAAGWDLDSAANSIEPDVVYAKRPHKKYAFESYICQRMFSGFQQKNFSVNSESAAVMANDDTDTFFRQFLALKDMDPLDALGTNPDSNFGIFCRSKYLLLVHPKMEASFFGNLDQRDYVTGGGHPRTAFYQAFLKLAKSIWILHRLAYSFDPAAKIFQVKKGSEFSDSYMESVVKNIVVDEKEENPRVGLMVMPGFWIGGSVIQSRVYVSGVKVLE | failed
MLPTKINLIRLRRELAMLRRIRRVMEEKREVILHYITSMAAEYVRYQREVYSELERIYQNYYLGVAAEGIERARAFTAPAEGSLEVDVSTRTLFAVKTPVFSLREETVPPLPLPAGSDPKLVQSILDMRSILDKLLKLAEYEETLQRLISELKDTQRLINALDYVILPSYQNAIKFIKLVLEDRMREDFVRLKIIKRKMEAKTQLEHHHHHH | not failed
MLQIIFLVIGLFIIVLALSFAFKRYARLILWSSAITLFAGTLLLVGIGVINPIDGDNTGSTTFWGTIITLISGAALAFCAEMLKEGNKGKTKVQNGNSSVSGKQTADNEETVVLIGMLHTELAIKVFAKAIEAGYIGEKGSHYKWNDSKVLLAYMCGRIYCGDKPEYSEMDEKSYWKFGRMGVFPDTELSNLFEMPDLGQSRSNRKDLAVPAKSKEIDKFFE | failed
